Test results from publication PMC6768651, “A ubiquitin-like domain controls protein kinase D dimerization and activation by trans-autophosphorylation” (The Journal of Biological Chemistry, 2019).

Assays:
[1] = biological target: human PKD1 kinase domain (PKD1^CAT, residues 569–892) (human) (UniProt Q15139); test: fluorescence polarisation; fluorescence anisotropy; 195 μM PKD1^CAT with 80 nM Atto488-labeled PKD1^CAT successively diluted with buffer containing 80 nM labeled protein; 50 mM Tris pH 7.5, 220 mM KCl, 1% glycerol, 1 mM TCEP; 20 °C; single binding model; dimer to monomers
[2] = biological target: human PKD1 kinase domain (PKD1^CAT, residues 569–892) (human) (UniProt Q15139); test: SEC-MALS; PKD1^CAT, first run, 625 μg injected
[3] = biological target: the molecule itself; test: fluorescence polarisation; fluorescence anisotropy; unlabeled PKD1 ULD (800 μM stock) titrated into 40 nM Atto488-labeled PKD1 ULD; 20 mM Tris pH 7.5, 150 mM KCl, 1 mM TCEP, 1% glycerol; 20 °C; single binding model; dimer to monomers
[4] = biological target: the molecule itself; test: SEC-MALS; Superdex 200 10/300; 20 mM Tris pH 7.5, 150 mM KCl, 1 mM TCEP; 50 μl of 2.5 mg/ml protein injected
[5] = biological target: T1, Atto488-labeled DKF-1 ULD^R42C (C. elegans, UniProt Q9XUJ7 1-94, R42C, Atto488 (maleimide-conjugated) on cysteine 42); test: fluorescence polarisation; fluorescence anisotropy; ULD or ULD^F59E (222 or 150 μM stock) titrated into 35–70 nM Atto488-ULD^R42C; 20 mM Tris pH 7.5, 150 mM KCl, 1% glycerol, 1 mM TCEP; 20 °C; single-site binding model; dimer to monomers; details: both partners purified
T1 construct: C. elegans DKF-1, residues 1-94 (ubiquitin-like domain) with the surface-exposed arginine 42 mutated to cysteine; Labeling efficiency estimated at about 80%; also called Atto488-ULD^R42C; source: E. coli BL21*, purified in the same way as the WT counterpart, labelled with maleimide-Atto488; not shown: GST, N-terminal, cleaved
T1 sequence (looked up): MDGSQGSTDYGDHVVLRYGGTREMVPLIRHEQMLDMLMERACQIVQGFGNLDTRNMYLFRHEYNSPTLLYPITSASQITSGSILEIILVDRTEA

Molecule: human PKD1 kinase domain (PKD1^CAT, residues 569–892) (from UniProt Q15139 569-892) (domain or fragment)
- Kd [1]: 50000 nM
- stoichiometry N [2]: 2

B1: human PKD1 ULD (PKD1^48–143) (domain or fragment, UniProt Q15139 48-143, looked up)
chain: GISFHLQIGLSREPVLLLQDSSGDYSLAHVREMACSIVDQKFPECGFYGMYDKILLFRHDPTSENILQLVKAASDIQEGDLIEVVLSASATFEDFQ
notes: human protein kinase D1 (PKD1), residues 48-143 (ubiquitin-like domain); In the anisotropy titration 40 nM of the same protein carried Atto488 (maleimide) on its surface-exposed cysteines (labeling efficiency 50%); Addgene 31527 is the plasmid carrying the PKD1 gene; also called ULD of human PKD1; source: E. coli BL21*, purified (GSH beads, TEV cleavage on beads, SEC); not shown: GST, N-terminal, …
- Kd [3]: 1700 ± 200 nM
- stoichiometry N [4]: 2

B2: DKF-1 ULD (DKF-1^1–94) (domain or fragment, C. elegans, UniProt Q9XUJ7 1-94, looked up)
chain: MDGSQGSTDYGDHVVLRYGGTREMVPLIRHEQMLDMLMERARQIVQGFGNLDTRNMYLFRHEYNSPTLLYPITSASQITSGSILEIILVDRTEA
notes: C. elegans PKD homolog DKF-1, residues 1-94 (ubiquitin-like domain); also called ULD^WT; source: E. coli BL21*, purified (GSH beads, TEV cleavage on beads, SEC); not shown: GST, N-terminal, cleaved
- Kd [5]: 650 ± 70 nM
- stoichiometry N [4]: 2

B3: human PKD3 ULD (PKD3^55–149) (domain or fragment, UniProt O94806 55-149, looked up)
chain: GSVHTVSFLLQIGLTRESVTIEAQELSLSAVKDLVCSIVYQKFPECGFFGMYDKILLFRHDMNSENILQLITSADEIHEGDLVEVVLSALATVED
notes: human protein kinase D3 (PKD3), residues 55-149 (ubiquitin-like domain); also called ULD of human PKD3; source: E. coli BL21*, purified (GSH beads, TEV cleavage on beads, SEC); not shown: GST, N-terminal, cleaved
- stoichiometry N [4]: 2

B4: DKF-1 ULD–C1a (DKF-1^1–151) (domain or fragment, C. elegans, UniProt Q9XUJ7 1-151, looked up)
chain: MDGSQGSTDYGDHVVLRYGGTREMVPLIRHEQMLDMLMERARQIVQGFGNLDTRNMYLFRHEYNSPTLLYPITSASQITSGSILEIILVDRTEAAVIPHVVEPESYMRPTFCDFCGEMLTGLMRQGVKCKNCNGNFHKRCSNAARNNCGAP
notes: C. elegans PKD homolog DKF-1, residues 1-151 (ubiquitin-like domain and C1a domain); The final crystallographic model comprises residues 12-151; also called PKD N terminus; source: E. coli BL21*, purified (GSH beads, TEV cleavage on beads, SEC); not shown: GST, N-terminal, cleaved
- stoichiometry N [4]: 2
